According to paper PMC4810121, “Proteomics Analysis Reveals Novel RASSF2 Interaction Partners” (Cancers, 2016):

Target: T1, RASSF2 (expression construct precipitated with anti-Flag) (UniProt P50749 1-326)
T1 construct: RASSF2; The methods describe no Flag-tagged construct; That RASSF2 carried the Flag tag is surmised, because C1QBP is the GFP-tagged partner and the blot used anti-Flag and anti-GFP; source: HEK-293T, transfected, in lysate
T1 sequence (looked up): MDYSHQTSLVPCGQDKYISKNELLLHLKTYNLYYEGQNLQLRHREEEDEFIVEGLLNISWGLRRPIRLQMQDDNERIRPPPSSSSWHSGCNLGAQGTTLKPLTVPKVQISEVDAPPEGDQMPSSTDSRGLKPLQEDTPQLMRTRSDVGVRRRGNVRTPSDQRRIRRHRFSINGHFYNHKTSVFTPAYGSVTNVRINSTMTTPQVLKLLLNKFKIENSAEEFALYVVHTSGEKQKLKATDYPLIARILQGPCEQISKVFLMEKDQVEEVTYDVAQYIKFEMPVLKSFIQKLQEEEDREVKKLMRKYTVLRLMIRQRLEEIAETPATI
Test: co-IP; HEK-293T co-transfected with RASSF2, C1QBP and with or without activated K-Ras for 24 hours; lysates immunoprecipitated with anti-Flag, blotted with anti-Flag and anti-GFP
Settings: partners not purified

fold change of the co-precipitate with activated Ras against without: ~2 fold
B1: GFP-C1QBP (natural protein, UniProt Q07021 74-282, looked up)
chain: LHTDGDKAFVDFLSDEIKEERKIQKHKTLPKMSGGWELELNGTEAKLVRKVAGEKITVTFNINNSIPPTFDGEEEPSQGQKVEEQEPELTSTPNFVVEVIKNDDGKKALVLDCHYPEDEVGQEDEAESDIFSIREVSFQSTGESEWKDTNYTLNTDSLDWALYDHLMDFLADRGVDNTFADELVELSTALEHQEYITFLEDLKSFVKSQ
notes: C1QBP; cDNA from GeneCopoeia, PCR amplified and cloned into pEGFP-C1; source: HEK-293T, transfected, in lysate
